From PMC7967050 (2021)

Target: Recombinant human CD38 extracellular domain (amino acids 43–300, hCD38-ECD) (human, UniProt P28907 43-300, biotin (EZ-Link NHS-PEG4-biotin) for panning and for capture on the SA biosensor; not said for the cross-linking)
Assay: BLI

Row | koff [s⁻¹] | Binder
1 | 0.00012 | high-affinity anti-CD38 antibody 028 (scFv) (scFv, V domains shown) VH: QVQLVQSGAEVKKPGSSVKVSCKAFGGTFSSYAISWVRQAPGQGLEWMGRIIRFLGIANYAQKFQGRVTLIADKSTNTAYMELSSLRSEDTAVYYCAGEPGERDPDAVDIWGQGTMVTVSS VL: DIQMTQSPSSLSASVGDRVTITCRASQGIRSWLAWYQQKPEKAPKSLIYAASSLQSGVPSRFSGSGSGTDFTLTISSLQPEDFATYYCQQYNSYPLTFGGGTKVEIK
2 | 0.0034 | anti-CD38 scFv antibody RP02 (scFv, V domains shown) VH: PAQLVESGPGLVKPSGTLSLTCAVSGGSISSSNWWSWVRQPPGKGLEWIGEIYHSGSTNYNPSLKSRVTISVDKSKNQFSLKLSSVTAADTAVYYCAREDYYYYMDVWGKGTTVTVQS VL: QSVLTQPPSVSAAPGQKVTISCSGSSSNIGNNYVSWYQQLPGTAPKLLIYDNNKRPSGIPDRFSGSKSGTSATLGITGLQTGDEADYYCGTWDSSLSAGVFGGGTKLTVL
